What all share (settings): both partners purified
Test [1] addresses T1, 14-3-3σ (full length) (human, UniProt P31947 1-248).
T1 construct: 14-3-3 protein sigma, human, full length; Expressed from a pPRoeX-Htb vector; also called 14-3-3 isoform σ; the σ isoform; source: E. coli NiCo21(DE3), purified (nickel column, TEV cleavage, second nickel column, SEC)
T1 sequence (looked up): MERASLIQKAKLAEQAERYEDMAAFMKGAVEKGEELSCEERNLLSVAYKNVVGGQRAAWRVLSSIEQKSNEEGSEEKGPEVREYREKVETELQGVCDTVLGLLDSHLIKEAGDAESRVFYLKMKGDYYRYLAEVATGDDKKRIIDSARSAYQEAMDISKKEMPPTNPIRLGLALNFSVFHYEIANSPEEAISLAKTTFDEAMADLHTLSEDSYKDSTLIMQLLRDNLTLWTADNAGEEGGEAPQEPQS
In words: ITC; peptide titrated into the cell containing the 14-3-3 protein, 18 injections of 2 µl, 25°C; 50 mM Tris pH 7.5, 150 mM NaCl, 5 mM MgCl2, 2 mM 2-mercaptoethanol, 0.05% Tween-20 (reducing conditions). (Isothermal titration calorimetry measures the heat released or taken up as one component is titrated into another.)

The target in another test is T2, 14-3-3γ (full length) (human, UniProt P61981 1-247).
T2 construct: 14-3-3 protein gamma, human, full length; Expressed from a pPRoeX-Htb vector; also called 14-3-3 isoform γ; source: E. coli NiCo21(DE3), purified (nickel column, TEV cleavage, second nickel column, SEC)
T2 sequence (looked up): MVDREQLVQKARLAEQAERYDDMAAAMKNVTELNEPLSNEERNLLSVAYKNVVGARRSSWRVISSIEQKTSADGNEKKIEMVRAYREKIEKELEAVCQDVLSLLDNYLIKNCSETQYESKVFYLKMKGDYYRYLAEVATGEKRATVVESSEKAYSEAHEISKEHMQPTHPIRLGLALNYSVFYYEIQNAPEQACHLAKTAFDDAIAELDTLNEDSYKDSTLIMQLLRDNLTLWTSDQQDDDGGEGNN
Nature of the test: fluorescence polarisation; 14-3-3 isoforms (full length) serially diluted twofold in the presence of 10 nM FITC-labelled peptide; 50 mM Tris pH 7.5, 150 mM NaCl, 5 mM MgCl2, 0.05% Tween-20 (no reducing agent listed); one-site specific binding model.

The target of a further test is T3, 14-3-3τ (full length) (human, UniProt P27348 1-245).
T3 construct: 14-3-3 protein theta (tau), human, full length; Expressed from a pPRoeX-Htb vector; also called 14-3-3 isoform τ; source: E. coli NiCo21(DE3), purified (nickel column, TEV cleavage, second nickel column, SEC)
T3 sequence (looked up): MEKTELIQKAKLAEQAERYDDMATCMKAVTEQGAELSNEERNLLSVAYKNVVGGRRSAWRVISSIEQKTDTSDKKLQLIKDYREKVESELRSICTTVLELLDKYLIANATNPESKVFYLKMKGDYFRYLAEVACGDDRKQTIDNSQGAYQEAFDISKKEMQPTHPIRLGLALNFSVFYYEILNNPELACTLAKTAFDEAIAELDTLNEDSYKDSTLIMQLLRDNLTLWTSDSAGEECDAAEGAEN
The description is as above.

The target of test [2] is T1, 14-3-3σ (full length). The description is as above.
The target of a further test is T4, 14-3-3η (full length) (human, UniProt Q04917 1-246).
T4 construct: 14-3-3 protein eta, human, full length; Expressed from a pPRoeX-Htb vector; also called 14-3-3 isoform η; source: E. coli NiCo21(DE3), purified (nickel column, TEV cleavage, second nickel column, SEC)
T4 sequence (looked up): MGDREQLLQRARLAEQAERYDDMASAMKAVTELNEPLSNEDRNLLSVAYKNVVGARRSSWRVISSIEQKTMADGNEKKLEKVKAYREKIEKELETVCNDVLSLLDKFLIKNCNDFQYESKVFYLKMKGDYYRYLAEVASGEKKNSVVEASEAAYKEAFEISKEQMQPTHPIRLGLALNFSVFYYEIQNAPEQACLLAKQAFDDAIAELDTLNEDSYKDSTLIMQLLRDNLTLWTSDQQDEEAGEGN
The test is described as above.

Another test concerns the target T5, 14-3-3β (full length) (human, UniProt P31946 1-246).
T5 construct: 14-3-3 protein beta/alpha, human, full length; Expressed from a pPRoeX-Htb vector; also called 14-3-3 isoform β; source: E. coli NiCo21(DE3), purified (nickel column, TEV cleavage, second nickel column, SEC)
T5 sequence (looked up): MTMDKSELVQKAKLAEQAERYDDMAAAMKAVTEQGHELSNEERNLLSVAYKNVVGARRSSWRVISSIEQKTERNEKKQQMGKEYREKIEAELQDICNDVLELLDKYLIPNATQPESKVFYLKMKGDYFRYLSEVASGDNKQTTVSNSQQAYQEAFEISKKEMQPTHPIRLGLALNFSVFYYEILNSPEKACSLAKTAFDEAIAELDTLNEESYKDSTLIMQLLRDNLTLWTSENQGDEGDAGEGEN
Described as above.

A word on the Kd: it is the concentration at which binding is half-saturated.

Non-standard residues stand in square brackets, D forms with d. No end group written: not given here. *: point of attachment. FITC = O=C1OC2(c3ccc(O)cc3Oc3cc(O)ccc32)c2ccc(NC(=S)*)cc21; pS = N[C@@H](COP(=O)(O)O)C(=O)O; Ahx = NCCCCCC(=O)O

B1: SHN3pS542 peptide, N-terminally FITC-Ahx-labelled (peptide)
peptide: {FITC-Ahx}-LLRSH[pS]MPSAAC
modifications: also: phosphoserine at 542, position not mapped
notes: Schnurri-3 (SHN3, transcription factor HIVEP3), human, 12-mer around phosphorylated Ser542; also called SHN3pS542-FITC; the FITC-labelled form; source: synthetic peptide, bought: GenScript (purity >95%)
For the molecule B1, the Kd was 4.8 ± 0.8 µM with 14-3-3σ (full length) [1], 0.78 ± 0.05 µM with 14-3-3γ (full length), 0.026 ± 0.002 µM in the test with 14-3-3σ (full length) [2] and 0.69 ± 0.06 µM with 14-3-3η (full length). The binding result in the test with 14-3-3τ (full length) and with 14-3-3β (full length) was “binds” throughout.
